Experimental data published in patent US20220378912A1 (Novartis, published 2022).

Tests used:
[1] = target: T1, recombinant human P-selectin (human, UniProt P16109 42-771, limits assumed); experiment: P-selectin binding assay of Example 2 (ELISA), relative %; CZE peak comprising the variant
T1 construct: Coated on ELISA plates
T1 sequence (looked up): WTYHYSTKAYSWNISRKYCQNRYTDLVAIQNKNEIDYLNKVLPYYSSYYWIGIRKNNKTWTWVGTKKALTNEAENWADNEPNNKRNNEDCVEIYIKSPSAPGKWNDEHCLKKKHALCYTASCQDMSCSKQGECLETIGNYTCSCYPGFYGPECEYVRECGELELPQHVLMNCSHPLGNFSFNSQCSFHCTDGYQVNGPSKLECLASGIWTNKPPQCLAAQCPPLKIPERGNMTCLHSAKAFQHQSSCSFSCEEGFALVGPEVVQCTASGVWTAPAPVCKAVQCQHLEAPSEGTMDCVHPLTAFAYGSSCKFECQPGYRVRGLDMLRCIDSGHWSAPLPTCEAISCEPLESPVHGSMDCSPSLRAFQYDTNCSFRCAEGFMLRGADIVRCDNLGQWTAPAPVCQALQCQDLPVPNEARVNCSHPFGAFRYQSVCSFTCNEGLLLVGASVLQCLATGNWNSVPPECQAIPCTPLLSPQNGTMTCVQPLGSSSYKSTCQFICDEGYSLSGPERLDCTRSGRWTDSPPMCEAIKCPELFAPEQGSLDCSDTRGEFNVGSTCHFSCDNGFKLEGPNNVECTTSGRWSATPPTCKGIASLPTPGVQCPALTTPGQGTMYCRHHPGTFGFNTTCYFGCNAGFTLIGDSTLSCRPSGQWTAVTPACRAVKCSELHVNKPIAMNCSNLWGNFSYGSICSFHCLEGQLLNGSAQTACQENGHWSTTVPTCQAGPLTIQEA
Experimental: In the ELISA, potency and identity of SEG101 samples are measured based on their ability to bind recombinant human P-selectin. ELISA plates are coated with recombinant human P-selectin, and graded amounts of SEG101 are added. Bound SEG101 is quantified using an anti-human IgG antibody coupled to horseradish peroxidase followed by the addition of a colorimetric substrate. Results of the colorimetric reaction are measured by light absorption. The potency of a SEG101 test sample is quantified by comparing its ability to bind P-selectin to that of a SEG101 reference standard. The samples and the standard are normalized on the basis of protein content. Relative potency is calculated using a parallel line assay according to the European Pharmacopoeia. The final result is expressed as relative potency (in percent) of a sample compared to the reference standard.

[2] = target: T2, P-selectin fused to immunoglobulin (Psel-Ig) (UniProt P16109 42-771, limits assumed); experiment: SPR competition: dilution series of crizanlizumab and any variants thereof inhibiting Psel-Ig binding to immobilised biotinylated GSP-6 (standard inhibition curve)
T2 construct: also called spiked P-selectin; not shown: immunoglobulin part of the fusion
T2 sequence (looked up): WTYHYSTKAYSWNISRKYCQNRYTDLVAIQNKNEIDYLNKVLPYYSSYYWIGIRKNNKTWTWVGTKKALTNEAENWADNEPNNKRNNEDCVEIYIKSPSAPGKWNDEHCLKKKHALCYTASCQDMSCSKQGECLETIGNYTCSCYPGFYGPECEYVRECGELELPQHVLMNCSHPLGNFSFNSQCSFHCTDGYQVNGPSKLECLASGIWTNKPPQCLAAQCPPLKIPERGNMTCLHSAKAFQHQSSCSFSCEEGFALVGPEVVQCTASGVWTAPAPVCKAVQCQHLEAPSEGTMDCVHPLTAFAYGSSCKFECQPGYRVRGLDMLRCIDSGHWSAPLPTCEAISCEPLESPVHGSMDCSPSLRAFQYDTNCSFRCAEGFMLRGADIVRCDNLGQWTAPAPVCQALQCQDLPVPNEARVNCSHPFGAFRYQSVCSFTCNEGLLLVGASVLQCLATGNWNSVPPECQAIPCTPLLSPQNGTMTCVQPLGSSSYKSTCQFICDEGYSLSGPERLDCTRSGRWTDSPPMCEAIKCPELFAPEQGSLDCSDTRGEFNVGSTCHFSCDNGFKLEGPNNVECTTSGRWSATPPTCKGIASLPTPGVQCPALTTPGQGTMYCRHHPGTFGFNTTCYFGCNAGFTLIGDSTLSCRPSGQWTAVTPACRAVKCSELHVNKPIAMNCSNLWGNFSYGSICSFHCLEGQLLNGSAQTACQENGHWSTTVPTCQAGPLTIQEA
Experimental: An SPR-based method was used to measure ex vivo % P-selectin inhibition of crizanlizumab in human serum samples from human donors treated with crizanlizumab. This PD assay measured the ability of crizanlizumab and it variants in serum to block P-selectin (antigen; ligand) binding to PSGL-1 (ligand receptor). Blockage by crizanlizumab and any variants thereof was measured as % inhibition of spiked P-selectin fused to immunoglobulin (Psel-Ig) binding to glycosulfopeptide 6 (GSP-6), a peptide analogue mimicking the PSGL-1 binding domain. For example, streptavidin was immobilized on 2 channels (FC-2 and FC-3) of the used biosensor chip using standard amine coupling followed by injection of biotinylated GSP-6 to immobilize the peptide for analysis. A reference channel (FC-1) was prepared by biotin-blocking streptavidin. The pre-treatment samples established the maximum binding for each subject and this was used as the basis for calculating % inhibition using the post-dose serum samples from the subject at various time points. Quantified crizanlizumab and any variants thereof in a series of dilutions were used to generate standard inhibitition curve, showing an IC₅₀ value of 5.2 μg/mL for crizanlizumab under all conditions.

Binder	P-selectin binding affinity [%] [1] [%]	IC50 [2] [µg/mL]
SEG101 (crizanlizumab), humanised monoclonal antibody against human P-selectin (antibody, human IgG2, kappa, V domains shown, also called SelG1; main peak) VH: QVQLVQSGAEVKKPGASVKVSCKVSGYTFTSYDINWVRQAPGKGLEWMGWIYPGDGSIKYNEKFKGRVTMTVDKSTDTAYMELSSLRSEDTAVYYCARRGEYGNYEGAMDYWGQGTLVTVSS VL: DIQMTQSPSSLSASVGDRVTITCKASQSVDYDGHSYMNWYQQKPGKAPKLLIYAASNLESGVPSRFSGSGSGTDFTLTISSLQPEDFATYYCQQSDENPLTFGGGTKVEIKR	90	5.2
homo-iso-crizanlizumab (antibody, human IgG2, kappa, V domains shown, isoaspartic acid at position 32, Aspartic acid at position 32 of both light chains replaced by isoaspartic acid; also called iso-crizanlizumab (both light chains)) VH: QVQLVQSGAEVKKPGASVKVSCKVSGYTFTSYDINWVRQAPGKGLEWMGWIYPGDGSIKYNEKFKGRVTMTVDKSTDTAYMELSSLRSEDTAVYYCARRGEYGNYEGAMDYWGQGTLVTVSS VL: DIQMTQSPSSLSASVGDRVTITCKASQSVDYDGHSYMNWYQQKPGKAPKLLIYAASNLESGVPSRFSGSGSGTDFTLTISSLQPEDFATYYCQQSDENPLTFGGGTKVEIKR	119	
D-succinimide of crizanlizumab (antibody, human IgG2, kappa, succinimide at position 32, One light chain with succinimide, the other with aspartic acid at position 32; also called D-Succi-crizanlizumab) heavy: QVQLVQSGAEVKKPGASVKVSCKVSGYTFTSYDINWVRQAPGKGLEWMGWIYPGDGSIKYNEKFKGRVTMTVDKSTDTAYMELSSLRSEDTAVYYCARRGEYGNYEGAMDYWGQGTLVTVSSASTKGPSVFPLAPCSRSTSESTAALGCLVKDYFPEPVTVSWNSGALTSGVHTFPAVLQSSGLYSLSSVVTVTSSNFGTQTYTCNVDHKPSNTKVDKTVERKCCVECPPCPAPPVAGPSVFLFPPKPKDTLMISRTPEVTCVVVDVSHEDPEVQFNWYVDGMEVHNAKTKPREEQFNSTFRVVSVLTVVHQDWLNGKEYKCAVSNKGLPAPIEKTISKTKGQPREPQVYTLPPSREEMTKNQVSLTCLVKGFYPSDIAVEWESNGQPENNYKTTPPMLDSDGSFFLYSKLTVDKSRWQQGNVFSCSVMHEALHNHYTQKSLSLSPGK light 1: DIQMTQSPSSLSASVGDRVTITCKASQSVDYDGHSYMNWYQQKPGKAPKLLIYAASNLESGVPSRFSGSGSGTDFTLTISSLQPEDFATYYCQQSDENPLTFGGGTKVEIKRTVAAPSVFIFPPSDEQLKSGTASVVCLLNNFYPREAKVQWKVDNALQSGNSQESVTEQDSKDSTYSLSSTLTLSKADYEKHKVYACEVTHQGLSSPVTKSFNRGEC light 2: DIQMTQSPSSLSASVGDRVTITCKASQSVDYDGHSYMNWYQQKPGKAPKLLIYAASNLESGVPSRFSGSGSGTDFTLTISSLQPEDFATYYCQQSDENPLTFGGGTKVEIKRTVAAPSVFIFPPSDEQLKSGTASVVCLLNNFYPREAKVQWKVDNALQSGNSQESVTEQDSKDSTYSLSSTLTLSKADYEKHKVYACEVTHQGLSSPVTKSFNRGEC	78	
isoD-succinimide of crizanlizumab (antibody, human IgG2, kappa, isoaspartic acid at position 32; succinimide at position 32, One light chain with succinimide, the other with isoaspartic acid at position 32; also called isoD-Succi-crizanlizumab) heavy: QVQLVQSGAEVKKPGASVKVSCKVSGYTFTSYDINWVRQAPGKGLEWMGWIYPGDGSIKYNEKFKGRVTMTVDKSTDTAYMELSSLRSEDTAVYYCARRGEYGNYEGAMDYWGQGTLVTVSSASTKGPSVFPLAPCSRSTSESTAALGCLVKDYFPEPVTVSWNSGALTSGVHTFPAVLQSSGLYSLSSVVTVTSSNFGTQTYTCNVDHKPSNTKVDKTVERKCCVECPPCPAPPVAGPSVFLFPPKPKDTLMISRTPEVTCVVVDVSHEDPEVQFNWYVDGMEVHNAKTKPREEQFNSTFRVVSVLTVVHQDWLNGKEYKCAVSNKGLPAPIEKTISKTKGQPREPQVYTLPPSREEMTKNQVSLTCLVKGFYPSDIAVEWESNGQPENNYKTTPPMLDSDGSFFLYSKLTVDKSRWQQGNVFSCSVMHEALHNHYTQKSLSLSPGK light 1: DIQMTQSPSSLSASVGDRVTITCKASQSVDYDGHSYMNWYQQKPGKAPKLLIYAASNLESGVPSRFSGSGSGTDFTLTISSLQPEDFATYYCQQSDENPLTFGGGTKVEIKRTVAAPSVFIFPPSDEQLKSGTASVVCLLNNFYPREAKVQWKVDNALQSGNSQESVTEQDSKDSTYSLSSTLTLSKADYEKHKVYACEVTHQGLSSPVTKSFNRGEC light 2: DIQMTQSPSSLSASVGDRVTITCKASQSVDYDGHSYMNWYQQKPGKAPKLLIYAASNLESGVPSRFSGSGSGTDFTLTISSLQPEDFATYYCQQSDENPLTFGGGTKVEIKRTVAAPSVFIFPPSDEQLKSGTASVVCLLNNFYPREAKVQWKVDNALQSGNSQESVTEQDSKDSTYSLSSTLTLSKADYEKHKVYACEVTHQGLSSPVTKSFNRGEC	63	
hetero-iso-crizanlizumab (antibody, human IgG2, kappa, isoaspartic acid at position 32, Aspartic acid at position 32 of only one light chain replaced by isoaspartic acid; also called iso-crizanlizumab (one light chain)) heavy: QVQLVQSGAEVKKPGASVKVSCKVSGYTFTSYDINWVRQAPGKGLEWMGWIYPGDGSIKYNEKFKGRVTMTVDKSTDTAYMELSSLRSEDTAVYYCARRGEYGNYEGAMDYWGQGTLVTVSSASTKGPSVFPLAPCSRSTSESTAALGCLVKDYFPEPVTVSWNSGALTSGVHTFPAVLQSSGLYSLSSVVTVTSSNFGTQTYTCNVDHKPSNTKVDKTVERKCCVECPPCPAPPVAGPSVFLFPPKPKDTLMISRTPEVTCVVVDVSHEDPEVQFNWYVDGMEVHNAKTKPREEQFNSTFRVVSVLTVVHQDWLNGKEYKCAVSNKGLPAPIEKTISKTKGQPREPQVYTLPPSREEMTKNQVSLTCLVKGFYPSDIAVEWESNGQPENNYKTTPPMLDSDGSFFLYSKLTVDKSRWQQGNVFSCSVMHEALHNHYTQKSLSLSPGK light 1: DIQMTQSPSSLSASVGDRVTITCKASQSVDYDGHSYMNWYQQKPGKAPKLLIYAASNLESGVPSRFSGSGSGTDFTLTISSLQPEDFATYYCQQSDENPLTFGGGTKVEIKRTVAAPSVFIFPPSDEQLKSGTASVVCLLNNFYPREAKVQWKVDNALQSGNSQESVTEQDSKDSTYSLSSTLTLSKADYEKHKVYACEVTHQGLSSPVTKSFNRGEC light 2: DIQMTQSPSSLSASVGDRVTITCKASQSVDYDGHSYMNWYQQKPGKAPKLLIYAASNLESGVPSRFSGSGSGTDFTLTISSLQPEDFATYYCQQSDENPLTFGGGTKVEIKRTVAAPSVFIFPPSDEQLKSGTASVVCLLNNFYPREAKVQWKVDNALQSGNSQESVTEQDSKDSTYSLSSTLTLSKADYEKHKVYACEVTHQGLSSPVTKSFNRGEC	105	
